The text below walks through data of publication PMC6107238, “Conformational plasticity of the intrinsically disordered protein ASR1 modulates its function as a drought stress-responsive gene” (PLoS ONE, 2018).

Data set [1] concerns the target T1, ASR1 (Abscisic, Stress, Ripening 1) (Solanum lycopersicum (tomato), UniProt Q08655 1-115).
T1 sequence: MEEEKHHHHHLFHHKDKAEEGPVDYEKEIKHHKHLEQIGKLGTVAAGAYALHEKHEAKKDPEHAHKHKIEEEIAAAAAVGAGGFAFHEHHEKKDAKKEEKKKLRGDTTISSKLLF
Put plainly: fluorescence anisotropy; 100 uM ZnCl2; Buffer H: 100 mM NaCl, 20 mM HEPES pH 7.4, with 100 uM ZnCl2; 250 nM FITC-dsDNA; anisotropy temperature not stated (CD at 25 C). The note with it: protein: recombinant; tags: untagged in the main text (original His6 removed); label: 5' FITC on one strand; blunt. (In general: In fluorescence polarisation assays a small probe gives low polarisation when free and higher when bound to something large.)

Data set [2] deals with the molecule itself. As to the kind of experiment: SDS-PAGE; purified ASR1 at high protein concentrations on SDS-PAGE.

For orientation: Kd means a measure of binding affinity in units of concentration.

B1: FITC-oligoS (dsDNA)
DNA 1: AGTTCTGGTTGG
DNA 2: CCAACCAGAACT
Take B1: in data set [1], the Kd turned out to be 1080 ± 46 nM.

B2: FITC-oligoC (dsDNA)
DNA 1: TATTGGGCTTGG
DNA 2: CCAAGCCCAATA
For B2, in data set [1], the Kd amounted to 216 ± 10 nM.

B3: Tomato ASR1 (Abscisic, Stress, Ripening protein 1), untagged recombinant protein (natural protein, UniProt Q08655 1-115, looked up)
chain: MEEEKHHHHHLFHHKDKAEEGPVDYEKEIKHHKHLEQIGKLGTVAAGAYALHEKHEAKKDPEHAHKHKIEEEIAAAAAVGAGGFAFHEHHEKKDAKKEEKKKLRGDTTISSKLLF
notes: ASR1 of tomato; 'peaks corresponding to the expected full-length protein were pooled'; 12.7 kDa by SLS; The cloning of ASR1 alone is not described; also called untagged ASR1; ASR1 recombinant protein
Consider B3, for which the binding result in data set [2] was “binds”.
